Data: article PMC9352680, “A comprehensive thermodynamic model for RNA binding by the Saccharomyces cerevisiae Pumilio protein PUF4”
Numbering of substitutions follows the chain as printed. Names and notes keep the numbering of the source.

T1: PUF4 RNA-binding domain (Saccharomyces cerevisiae, UniProt P25339 537-888)
T1 sequence: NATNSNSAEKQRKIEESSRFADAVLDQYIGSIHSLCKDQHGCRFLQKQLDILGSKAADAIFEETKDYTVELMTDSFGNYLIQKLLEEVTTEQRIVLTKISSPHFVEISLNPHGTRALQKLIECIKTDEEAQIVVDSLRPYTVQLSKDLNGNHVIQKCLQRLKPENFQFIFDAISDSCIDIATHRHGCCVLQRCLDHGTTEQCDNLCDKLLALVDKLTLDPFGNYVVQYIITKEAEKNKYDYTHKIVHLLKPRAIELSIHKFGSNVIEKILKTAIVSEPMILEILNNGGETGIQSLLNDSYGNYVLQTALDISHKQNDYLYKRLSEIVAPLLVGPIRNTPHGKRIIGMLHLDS

B1: Ia_S4_P3E.1_K3.1_C3.1_H3.1_[A4T]_A3.1_F3.1_T3.1 (ssRNA)
RNA: UUUGACAACUGAUCGUUCUUUCUUGUUUAUAUUCUUUCUCGAUCAGUUGUCUUU
B2: Ic_S4_P3E.1_K3.1_C3.1_H3.1_A3.1_[T5C]_F3.1_T3.1 (ssRNA)
RNA: B1 RNA with U27A, U28C
B3: Ic_S4_P3E.1_K3.1_C3.1_H3.1_A3.1_[A6C]_F3.1_T3.1 (ssRNA)
RNA: B1 RNA with U27A, A29C
B4: Ib_S4_P4E.1_K4.1_C4.1_H4.1_A4.1_[T7C]_F4.1_[A9C]_T4.1 (ssRNA)
RNA: UUUGACAACUGAUCGUUCUUUCUUGUAUACUCUUCUUUCUCGAUCAGUUGUCUUU
B5: Ib_S4_P4E.1_K4.1_C4.1_H4.1_[T1C]_[G2C]_A4.1_F4.1_T4.1 (ssRNA)
RNA: B4 RNA with U24C, G25C, C30U, C32A
B6: Ib_S4_P4E.1_K4.1_C4.1_H4.1_[G2T]_[T3C]_A4.1_F4.1_T4.1 (ssRNA)
RNA: B4 RNA with G25U, U26C, C30U, C32A
B7: Ib_S4_P4E.1_K4.1_C4.1_H4.1_[T1A]_A4.1_[A6C]_F4.1_T4.1 (ssRNA)
RNA: B4 RNA with U24A, A29C, C30U, C32A
B8: Ib_S4_P4E.1_K4.1_C4.1_H4.1_[T1G]_[A4G]_A4.1_F4.1_T4.1 (ssRNA)
RNA: B4 RNA with U24G, A27G, C30U, C32A
B9: Ia_S4_P4E.1_K4.1_C4.1_H4.1_A4.1_F4.1_[T8C]_T4.1 (ssRNA)
RNA: B4 RNA with C30U, U31C, C32A
B10: Ib_S4_P4E.1_K4.1_C4.1_H4.1_[G2A]_[A4G]_A4.1_F4.1_T4.1 (ssRNA)
RNA: B4 RNA with G25A, A27G, C30U, C32A
B11: Ib_S4_P4E.1_K4.1_C4.1_H4.1_[T3C]_[A4C]_A4.1_F4.1_T4.1 (ssRNA)
RNA: B4 RNA with U26C, A27C, C30U, C32A
B12: Ib_S4_P4E.1_K4.1_C4.1_H4.1_[G2T]_[A4G]_A4.1_F4.1_T4.1 (ssRNA)
RNA: B4 RNA with G25U, A27G, C30U, C32A
B13: Ib_S4_P4E.1_K4.1_C4.1_H4.1_[T3G]_[A4T]_A4.1_F4.1_T4.1 (ssRNA)
RNA: B4 RNA with U26G, A27U, C30U, C32A
B14: Ib_S4_P4E.1_K4.1_C4.1_H4.1_[T1G]_A4.1_[T5C]_F4.1_T4.1 (ssRNA)
RNA: B4 RNA with U24G, U28C, C30U, C32A
B15: Ib_S4_P4E.1_K4.1_C4.1_H4.1_[G2T]_[A4C]_A4.1_F4.1_T4.1 (ssRNA)
RNA: B4 RNA with G25U, A27C, C30U, C32A
B16: Ib_S4_P4E.1_K4.1_C4.1_H4.1_[G2A]_[A4T]_A4.1_F4.1_T4.1 (ssRNA)
RNA: B4 RNA with G25A, A27U, C30U, C32A
B17: Ib_S4_P4E.1_K4.1_C4.1_H4.1_[T1C]_[G2A]_A4.1_F4.1_T4.1 (ssRNA)
RNA: B4 RNA with U24C, G25A, C30U, C32A
B18: Ib_S4_P4E.1_K4.1_C4.1_H4.1_[T1G]_[G2T]_A4.1_F4.1_T4.1 (ssRNA)
RNA: B4 RNA with U24G, G25U, C30U, C32A
B19: Ib_S4_P4E.1_K4.1_C4.1_H4.1_[G2T]_A4.1_[T5C]_F4.1_T4.1 (ssRNA)
RNA: B4 RNA with G25U, U28C, C30U, C32A
B20: Ib_S4_P4E.1_K4.1_C4.1_H4.1_[T1A]_[A4T]_A4.1_F4.1_T4.1 (ssRNA)
RNA: B4 RNA with U24A, A27U, C30U, C32A
B21: Ib_S4_P4E.1_K4.1_C4.1_H4.1_[T1A]_[G2T]_A4.1_F4.1_T4.1 (ssRNA)
RNA: B4 RNA with U24A, G25U, C30U, C32A
B22: Ib_S4_P4E.1_K4.1_C4.1_H4.1_[T1A]_[G2C]_A4.1_F4.1_T4.1 (ssRNA)
RNA: B4 RNA with U24A, G25C, C30U, C32A
B23: Ib_S4_P4E.1_K4.1_C4.1_H4.1_[T1G]_[A4C]_A4.1_F4.1_T4.1 (ssRNA)
RNA: B4 RNA with U24G, A27C, C30U, C32A
B24: Ib_S4_P4E.1_K4.1_C4.1_H4.1_[G2T]_A4.1_[T7A]_F4.1_T4.1 (ssRNA)
RNA: B4 RNA with G25U, C30A, C32A
B25: Ib_S4_P4E.1_K4.1_C4.1_H4.1_[T1A]_A4.1_[T5A]_F4.1_T4.1 (ssRNA)
RNA: B4 RNA with U24A, U28A, C30U, C32A
B26: Ib_S4_P4E.1_K4.1_C4.1_H4.1_[G2C]_A4.1_[T7G]_F4.1_T4.1 (ssRNA)
RNA: B4 RNA with G25C, C30G, C32A
B27: Ib_S4_P4E.1_K4.1_C4.1_H4.1_[T1C]_[A4T]_A4.1_F4.1_T4.1 (ssRNA)
RNA: B4 RNA with U24C, A27U, C30U, C32A
B28: Ib_S4_P4E.1_K4.1_C4.1_H4.1_[T1C]_A4.1_[A6G]_F4.1_T4.1 (ssRNA)
RNA: B4 RNA with U24C, A29G, C30U, C32A
B29: Ib_S4_P4E.1_K4.1_C4.1_H4.1_[T1G]_A4.1_[T7A]_F4.1_T4.1 (ssRNA)
RNA: B4 RNA with U24G, C30A, C32A
B30: Ib_S4_P4E.1_K4.1_C4.1_H4.1_[G2C]_A4.1_[A6C]_F4.1_T4.1 (ssRNA)
RNA: B4 RNA with G25C, A29C, C30U, C32A
B31: Ib_S4_P4E.1_K4.1_C4.1_H4.1_[T1C]_A4.1_[T5A]_F4.1_T4.1 (ssRNA)
RNA: B4 RNA with U24C, U28A, C30U, C32A
B32: Ib_S4_P4E.1_K4.1_C4.1_H4.1_[G2C]_[T3C]_A4.1_F4.1_T4.1 (ssRNA)
RNA: B4 RNA with G25C, U26C, C30U, C32A
B33: Ib_S4_P4E.1_K4.1_C4.1_H4.1_[T1A]_A4.1_[A6T]_F4.1_T4.1 (ssRNA)
RNA: B4 RNA with U24A, A29U, C30U, C32A
B34: Ib_S4_P4E.1_K4.1_C4.1_H4.1_[T1C]_A4.1_[A6T]_F4.1_T4.1 (ssRNA)
RNA: B4 RNA with U24C, A29U, C30U, C32A
B35: Ib_S4_P4E.1_K4.1_C4.1_H4.1_[T1G]_A4.1_[A6T]_F4.1_T4.1 (ssRNA)
RNA: B4 RNA with U24G, A29U, C30U, C32A
B36: Ib_S4_P4E.1_K4.1_C4.1_H4.1_[G2T]_A4.1_[A6C]_F4.1_T4.1 (ssRNA)
RNA: B4 RNA with G25U, A29C, C30U, C32A
B37: Ib_S4_P4E.1_K4.1_C4.1_H4.1_[T3C]_A4.1_[A6T]_F4.1_T4.1 (ssRNA)
RNA: B4 RNA with U26C, A29U, C30U, C32A
B38: Ib_S4_P4E.1_K4.1_C4.1_H4.1_[T3C]_A4.1_[T7C]_F4.1_T4.1 (ssRNA)
RNA: B4 RNA with U26C, C32A
B39: Ib_S4_P4E.1_K4.1_C4.1_H4.1_[T1A]_[T3C]_A4.1_F4.1_T4.1 (ssRNA)
RNA: B4 RNA with U24A, U26C, C30U, C32A
B40: Ib_S4_P4E.1_K4.1_C4.1_H4.1_[T3C]_A4.1_[T7G]_F4.1_T4.1 (ssRNA)
RNA: B4 RNA with U26C, C30G, C32A
B41: Ib_S4_P4E.1_K4.1_C4.1_H4.1_[T3C]_A4.1_[T7A]_F4.1_T4.1 (ssRNA)
RNA: B4 RNA with U26C, C30A, C32A
B42: Ib_S4_P4E.1_K4.1_C4.1_H4.1_[T1C]_[G2T]_A4.1_F4.1_T4.1 (ssRNA)
RNA: B4 RNA with U24C, G25U, C30U, C32A
B43: Ib_S4_P4E.1_K4.1_C4.1_H4.1_[G2A]_A4.1_[T7A]_F4.1_T4.1 (ssRNA)
RNA: B4 RNA with G25A, C30A, C32A
B44: Ib_S4_P4E.1_K4.1_C4.1_H4.1_[T1G]_[A4T]_A4.1_F4.1_T4.1 (ssRNA)
RNA: B4 RNA with U24G, A27U, C30U, C32A
B45: Ic_S4_P4E.1_K4.1_C4.1_H4.1_A4.1_[T7C]_F4.1_[A9T]_T4.1 (ssRNA)
RNA: B4 RNA with C32U

Molecular target: T1, PUF4 RNA-binding domain
Experiment: Mg; RNA-MaP; 20 mM Na-HEPES pH 7.4, 30 mM KOAc, 0.75 mM MgCl2, 0.1% Tween-20, 5% glycerol, 0.1 mg/mL BSA, 2 mM DTT; 25 C; 0.0125-409.6 nM protein
Conditions: tags: N-His6-TEV cleaved; C-SNAP kept, Cy3B-labelled; label: tethered on chip by stalled RNA polymerase

Row | Binder | Kd [nM]
1 | B1 | 86.8
2 | B2 | 1.93
3 | B3 | 10.1
4 | B4 | 10.1
5 | B5 | 331
6 | B6 | 2000
7 | B7 | 2270
8 | B8 | 40.1
9 | B9 | 9.03
10 | B10 | 15.2
11 | B11 | 814
12 | B12 | 7.27
13 | B13 | 1280
14 | B14 | 42.9
15 | B15 | > 2300
16 | B16 | 669
17 | B17 | 168
18 | B18 | 41.2
19 | B19 | 356
20 | B20 | > 2300
21 | B21 | 686
22 | B22 | 481
23 | B23 | > 2300

Row | Binder | Kd [nM]
24 | B24 | 1200
25 | B25 | 858
26 | B26 | > 2300
27 | B27 | 615
28 | B28 | 700
29 | B29 | 332
30 | B30 | > 2300
31 | B31 | 182
32 | B32 | 2090
33 | B33 | 1520
34 | B34 | 133
35 | B35 | 971
36 | B36 | > 2300
37 | B37 | 202
38 | B38 | 48.1
39 | B39 | 1880
40 | B40 | 434
41 | B41 | 215
42 | B42 | 401
43 | B43 | 75.2
44 | B44 | 1600
45 | B45 | 7
